The values that follow come from patent US6120992, “Use of immobilized mismatch binding protein for detection of mutations and polymorphisms, and allele identification in a diseased human” (ValiGene Corporation).

Data set [1] addresses T1, MutS (Escherichia coli, UniProt P23909 P23909:1-853).
T1 sequence: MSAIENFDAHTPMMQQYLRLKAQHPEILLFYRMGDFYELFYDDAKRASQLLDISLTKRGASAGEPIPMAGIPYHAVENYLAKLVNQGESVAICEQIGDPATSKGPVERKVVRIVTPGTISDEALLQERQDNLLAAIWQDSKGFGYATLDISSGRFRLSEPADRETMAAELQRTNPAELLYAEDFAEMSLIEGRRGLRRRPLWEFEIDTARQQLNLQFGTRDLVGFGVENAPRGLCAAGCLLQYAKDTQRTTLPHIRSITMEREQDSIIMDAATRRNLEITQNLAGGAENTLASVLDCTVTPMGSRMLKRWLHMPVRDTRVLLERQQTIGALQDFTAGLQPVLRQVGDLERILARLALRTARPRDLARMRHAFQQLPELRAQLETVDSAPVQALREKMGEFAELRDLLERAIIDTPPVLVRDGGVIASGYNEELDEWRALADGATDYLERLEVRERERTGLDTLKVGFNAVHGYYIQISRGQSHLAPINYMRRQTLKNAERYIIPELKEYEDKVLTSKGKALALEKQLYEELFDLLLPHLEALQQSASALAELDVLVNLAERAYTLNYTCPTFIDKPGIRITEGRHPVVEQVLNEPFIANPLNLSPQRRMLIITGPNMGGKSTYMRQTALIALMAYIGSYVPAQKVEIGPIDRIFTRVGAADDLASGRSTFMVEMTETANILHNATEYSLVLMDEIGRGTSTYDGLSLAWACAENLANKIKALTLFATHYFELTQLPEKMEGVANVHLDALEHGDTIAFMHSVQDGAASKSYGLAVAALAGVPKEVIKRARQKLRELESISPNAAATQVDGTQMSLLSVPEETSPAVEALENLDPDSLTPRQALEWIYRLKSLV
The data set is described as follows: immobilized MutS. The conditions noted are these: tags: immobilized on nitrocellulose, PVDF, nylon or magnetic beads, label: biotin. The procedure:
(§1) Immobilization of MutS on Solid Supports and Biotin Detection Assay (a) Nitrocellulose A nitrocellulose sheet (0.45 μm, Schleicher and Schull, BA85) was pre-wet by floating in reaction buffer (20 mM Tris HCl, pH 7.6; 5 mM MgCl_2, 0.1 mM DTT, 0.01 mM EDTA). MutS (500 ng/well) in reaction buffer was bound to the nitrocellulose in a 48 well slot blotting apparatus (Hoefer Scientific Instruments) over 3 sheets of blotting paper (Schleicher and Schull GB002). Reaction buffer alone was added to "no MutS" wells. After 20 min. at room temperature, nitrocellulose was blocked with 200 μl/well of 3% horse radish peroxidase (HRP)-free bovine serum albumin (BSA). After 1 hour, excess blocking solution was pulled through with vacuum and DNA (1 ng and 10 ng) was added in 20 μl reaction buffer containing 3% BSA. After 30 min. at room temperature, wells were washed 5 times with 100 μl reaction buffer. The wash fluids were decanted rather than pulled through with vacuum.
DNA was prepared as described in the Examples above. 500 ng *E. coli* MutS was bound to nitrocellulose as described above and the experiment carried out as in the previous Examples. Self-annealed single stranded triplet repeat sequences of CGG and CTG formed double-stranded mismatch-containing DNA duplexes which were recognized by immobilized MutS.

Data set [2] addresses T1, MutS. The data set is described as follows: immobilized MutS, 1-10 ng; detected equally to G//T. The conditions noted are these: tags: immobilized on nitrocellulose, PVDF, nylon or magnetic beads; label: 5' biotin on first strand; T//G mismatch. How it is done:
as §1
(§2) The presence of biotin-labeled DNA bound on the nitrocellulose sheet was detected by visualizing the binding of streptavidin to biotin. 100 μl streptavidin-conjugated HRP (0.05 μg/ml in reaction buffer+BSA) was added to each well. After 20 min. at room temperature, any remaining solution was decanted and the wells washed 5 times with 100 μl reaction buffer as above.

The target in data set [3] is T1, MutS. The data set is described as follows: filter; soluble MutS, 1 or 10 ng DNA; 1.8-fold at 0.1 ng. The conditions noted are these: tags: immobilized on nitrocellulose, PVDF, nylon or magnetic beads; label: 5' biotin on first strand; G//T mismatch. The procedure: The binding of ^32P-labeled heteroduplexes to MutS in solution was tested in a standard filter binding assay essentially as described by Jiricny, J. et al., Nucl. Acids Res. 16:7843–7853 (1988). The oligonucleotides were labeled as above and annealed with a 10-fold excess of unlabeled "complementary" oligonucleotides to yield a homoduplex and a heteroduplex containing a single G//T mismatch. For this assay, 500 ng of MutS in reaction buffer (20 µl) was incubated for 30 minutes at room temperature with the two types of duplexes. The mixture was spotted onto pre-wet nitrocellulose filters, which were then washed 5 times with 2 ml reaction buffer by vacuum filtration and dried at 80° C. for 15 minutes. Each filter was placed in 3 ml scintillation fluid and the radioactivity determined by scintillation counting. Background cpm (no MutS) were subtracted from the cpm bound by MutS. Means of duplicate or triplicate determinations are shown below.

Data set [4] concerns the target T1, MutS. In words: immobilized MutS. Particulars: tags: immobilized on nitrocellulose, PVDF, nylon or magnetic beads, label: 5' biotin on first strand. How it is done:
as §1, §2

Data set [5] addresses T1, MutS. In words: immobilized MutS; C//T less well detected than T//C. Particulars: tags: immobilized on nitrocellulose, PVDF, nylon or magnetic beads; label: 5' biotin on first strand; C//T mismatch. The procedure: as §1, §2
For data set [6], the target named is T1, MutS. In words: immobilized MutS; strong signal. Particulars: tags: immobilized on nitrocellulose, PVDF, nylon or magnetic beads; label: 5' biotin on first strand; G//G mismatch. How it is done: as §1, §2
[7] abbreviates: self-annealed duplex with mismatches.

Take CAGCAGCAGCAGCAGCAGCAGCAGCAGCAG (ssDNA) [(CAG)10]: the binding result with MutS [1] is listed as “no binding”. In the case of CGGCGGCGGCGGCGGCGGCGGCGGCGGCGG (structured_DNA) [(CGG)10], the binding result in the data set with MutS [1] (setting [7]) is “binds”.

B1: T//G mismatch 30mer (dsDNA)
DNA 1: GCACCTGACTCCTGTGGAGAAGTCTGCCGT
DNA 2: ACGGCAGACTTCTCCGCAGGAGTCAGGTGC
B1: the binding result with MutS [2] is “binds”.

B2: G//T mismatch 30mer (dsDNA)
DNA 1: GCACCTGACTCCTGGGGAGAAGTCTGCCGT
DNA 2: ACGGCAGACTTCTCCTCAGGAGTCAGGTGC
As for B2, the binding signal in the data set with MutS [3] was 5.2 fold over G:C homoduplex. For the molecule CTGCTGCTGCTGCTGCTGCTGCTGCTGCTG (structured_DNA) [(CTG)10], the binding result with MutS [1] (setting [7]) was “binds”.

B3: A//G mismatch 30mer (dsDNA)
DNA 1: GCACCTGACTCCTGAGGAGAAGTCTGCCGT
DNA 2: ACGGCAGACTTCTCCGCAGGAGTCAGGTGC
Turning to B3, the binding result with MutS [4] (A//G mismatch) is “binds”.

B4: T//T mismatch 30mer (dsDNA)
DNA 1: GCACCTGACTCCTGTGGAGAAGTCTGCCGT
DNA 2: ACGGCAGACTTCTCCTCAGGAGTCAGGTGC
Take B4: in the data set with MutS [4] (T//T mismatch), the binding result is reported as “binds”.

B5: A//C mismatch 30mer (dsDNA)
DNA 1: GCACCTGACTCCTGAGGAGAAGTCTGCCGT
DNA 2: ACGGCAGACTTCTCCCCAGGAGTCAGGTGC
Turning to B5, the binding result with MutS [4] (A//C mismatch) is reported as “binds”. As to CCGCCGCCGCCGCCGCCGCCGCCGCCGCCG (ssDNA) [(CCG)10], in the data set with MutS [1], the binding result is “no binding”.

B6: A//A mismatch 30mer (dsDNA)
DNA 1: GCACCTGACTCCTGAGGAGAAGTCTGCCGT
DNA 2: ACGGCAGACTTCTCCACAGGAGTCAGGTGC
Take B6: the binding result in the data set with MutS [4] (A//A mismatch) is “binds”.

B7: C//T mismatch 30mer (dsDNA)
DNA 1: GCACCTGACTCCTGCGGAGAAGTCTGCCGT
DNA 2: ACGGCAGACTTCTCCTCAGGAGTCAGGTGC
For B7, the binding result with MutS [5] is “binds”.

B8: G//A mismatch 30mer (dsDNA)
DNA 1: GCACCTGACTCCTGGGGAGAAGTCTGCCGT
DNA 2: ACGGCAGACTTCTCCACAGGAGTCAGGTGC
As to B8, in the data set with MutS [4] (G//A mismatch), the binding result is given as “binds”.

B9: G//G mismatch 30mer (dsDNA)
DNA 1: GCACCTGACTCCTGGGGAGAAGTCTGCCGT
DNA 2: ACGGCAGACTTCTCCGCAGGAGTCAGGTGC
On to B9, for which the binding result with MutS [6] is “binds”.
